In paper PMC9888390, “A non-neutralizing glycoprotein B monoclonal antibody protects against herpes simplex virus disease in mice” (The Journal of Clinical Investigation, 2023):

Legend:
[1] = target: T1, Recombinant HSV-1 glycoprotein B, soluble ectodomain (Human herpesvirus 1, strain  …, UniProt P06437); experiment: Luminex bead binding assay; HSV-1 gB coupled to carboxylated beads; rAbs serially diluted from 2 μg/mL (3-fold, 11 dilutions) in PBS with 1% BSA, 0.05% NaN3, 0.05% Tween-20 and 1% milk, 2 hours; detected with PE-conjugated goat anti-mouse IgG; conditions: both partners purified
T1 construct: glycoprotein B of herpes simplex virus 1, soluble ectodomain, postfusion state; The printed limits 31-70 are perhaps a misprint of 31-730 (surmised). 'epo' in the name is perhaps a foreign signal peptide (surmised); also called gB; gB-1; not shown: His tag, C-terminal, kept

[2] = target: T1, Recombinant HSV-1 glycoprotein B, …; experiment: cryo-EM structure; gB 2.5 mg/mL with a 2-fold molar excess of Fab (3 mg/mL), 0.08% n-octyl-β-D-glucoside; Titan Krios 300 keV, K3 detector; gB in the postfusion state; conditions: both partners purified
[3] = target: T2, glycoprotein B of HSV-2(4674), from infected Vero cells (Human herpesvirus 2, clinical isolate …, UniProt P08666, strain); experiment: Western blot; HSV-2(4674)-infected or uninfected Vero cell lysates (10 μg per lane) separated by PAGE with β-mercaptoethanol, blotted and probed with BMPC-23 (10 μg/mL) overnight; anti-mouse IgG-HRP; conditions: one partner purified
T2 construct: glycoprotein B of herpes simplex virus 2, clinical isolate 4674, as made in infected cells; Seen as a band of about 100 kDa or about 116 kDa on a reducing gel; also called gB; monomeric gB; source: Vero cells infected with HSV-2(4674), in lysate

[4] = target: glycoprotein B of HSV-2(G), from infected HaCaT cells (Human herpesvirus 2, strain G, UniProt A0A0D4CHI5, strain); experiment: affinity purification with mass spectrometry; RIPA lysate of HSV-2(G)-infected HaCaT cells incubated overnight at 4°C with 1 mg/mL mAb; Protein A resin; elution with glycine-HCl pH 2.5-3.0; SDS-PAGE, in-gel trypsin digestion, nano-LC-MS/MS; conditions: one partner purified
[5] = target: T1, Recombinant HSV-1 glycoprotein B, …; experiment: BLI; OctetRed96; gB (C-terminal His tag) captured on anti-His (HIS2) biosensors at 1 ng/μL, dipped into increasing concentrations of BMPC-23 Fab; 1:1 binding model; apparent KD derived from on and off rates; conditions: both partners purified

B1: HSV010-13 recombinant mouse IgG (antibody, V domains shown)
VH: QVQLQQPGAELVKPGASVKLSCKASGYTFTSYWIHWVKQGPGQGLEWIGMIHPNSGITHYNEKFKTKATLTVDKSSSTAYMQLSSLTSEDSAVCYCARGSSSGSAWFAYWGQGTLVTVSA
VL: DIQMTQSSSYLSESLGGRVTITCKASDHINNWLAWYQQKPGNAPRLLISGATSLETGVPSRFSGSGSGKDYTLSITSLQTEDVATYYCQQYWSSPLTFGAGTKLELK
notes: VH of HSV010-13 (germinal center B cell of a ΔgD-2-vaccinated C57BL/6 mouse); VL of HSV010-13; Member of a clonal lineage of five (HSV010-6, -9, -13, -14, -15); source: Expi293F, transient transfection, purified from culture supernatant (protein G spin columns); copies: 2 + 2
binding result [1]: binds

B2: HSV010-13 Fab (Fab, V domains shown)
VH: QVQLQQPGAELVKPGASVKLSCKASGYTFTSYWIHWVKQGPGQGLEWIGMIHPNSGITHYNEKFKTKATLTVDKSSSTAYMQLSSLTSEDSAVCYCARGSSSGSAWFAYWGQGTLVTVSA
VL: DIQMTQSSSYLSESLGGRVTITCKASDHINNWLAWYQQKPGNAPRLLISGATSLETGVPSRFSGSGSGKDYTLSITSLQTEDVATYYCQQYWSSPLTFGAGTKLELK
notes: Fab part of the heavy chain of m5; as the light chain of m5; The methods tell how the Fab was made only for BMPC-23; also called Fab fragment of HSV010-13
binding result [2]: binds

B3: BMPC-23 recombinant mouse IgG (antibody, V domains shown)
VH: QVQLQQSGPELVKPGASVKLSCKASGYSFTTYDINWVKERPGQGLEWIGWIYPREGSTNYNEKFRGKATLTADTSSSTAYMELHSLTSEDSAVYFCATYGSSRYYTMDYWGQGTSVTVSS
VL: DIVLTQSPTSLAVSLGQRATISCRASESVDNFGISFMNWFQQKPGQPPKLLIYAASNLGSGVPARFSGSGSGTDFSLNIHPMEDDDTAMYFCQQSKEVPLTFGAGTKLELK
notes: VH of BMPC-23 (bone marrow plasmacyte of a ΔgD-2-vaccinated C57BL/6 mouse); mouse IgG1 or IgG2c constant region from the expression vector; VL of BMPC-23; Cloned into both mouse IgG1 and IgG2c vectors; also called BMPC-23 (IgG2c); mIgG2c BMPC-23; source: Expi293F, transient transfection, purified from culture supernatant (protein G spin columns); copies: 2 + 2
binding result [3]: binds | binding result [4]: binds | binding result [1]: binds

B4: BMPC-23 Fab (Fab, V domains shown)
VH: QVQLQQSGPELVKPGASVKLSCKASGYSFTTYDINWVKERPGQGLEWIGWIYPREGSTNYNEKFRGKATLTADTSSSTAYMELHSLTSEDSAVYFCATYGSSRYYTMDYWGQGTSVTVSS
VL: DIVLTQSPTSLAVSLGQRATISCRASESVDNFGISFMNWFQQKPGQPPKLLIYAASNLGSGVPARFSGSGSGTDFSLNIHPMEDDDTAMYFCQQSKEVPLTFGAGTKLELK
notes: as the heavy chain of m1 up to the papain cut; as the light chain of m1; also called Fab of BMPC-23; Fab portion of BMPC-23; source: from intact BMPC-23 (Expi293F) by cleavage with immobilized papain; purified by subtractive protein A chromatography
Kd [5]: 10 nM
